Experimental data published in patent US20220119553A1 (Sanofi, published 2022).

Key:
[1] = target: CD38 on human multiple myeloma cells (human, UniProt P28907 1-300); assay: cell-based or functional assay
[2] = target: T1, human CD19 (ELISA antigen) (human, UniProt P15391 20-291, limits assumed); assay: ELISA on coated antigen, detection with HRP-conjugated anti-Fab secondary antibody, OD450
T1 sequence (looked up): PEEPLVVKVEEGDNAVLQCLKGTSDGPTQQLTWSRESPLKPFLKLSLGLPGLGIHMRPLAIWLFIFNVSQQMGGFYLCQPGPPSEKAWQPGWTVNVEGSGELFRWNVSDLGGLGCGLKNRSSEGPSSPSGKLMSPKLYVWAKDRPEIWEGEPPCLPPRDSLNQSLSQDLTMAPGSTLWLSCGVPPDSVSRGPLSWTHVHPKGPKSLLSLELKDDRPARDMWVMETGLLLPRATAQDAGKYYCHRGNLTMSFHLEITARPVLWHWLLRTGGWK
Procedure: The coated plate was blocked using 5% skim milk+2% BSA in PBS for one hour at RT, followed by washing with PBS+0.25% Tween 20 three times (Aqua Max 400, Molecular Devices). Serial dilution of antibodies (trispecific and control Abs) were prepared and added onto the ELISA plates (100 μl/well in duplicate), incubated at RT for one hour, followed by washing 5 times with PBS+0.25% Tween 20.
The reaction was terminated by adding 50 μl 1M H₂SO₄, and OD₄₅₀ was measured using SpectraMax M5 (Molecular Devices) and analyzed using SoftMax Pro6.3 software (Molecular Devices). […] EC50 was calculated using the same software.

recombinant human IL4 [3] = target: T2, recombinant human IL4 (human, UniProt P05112 25-153); assay: cell-based or functional assay
T2 sequence (looked up): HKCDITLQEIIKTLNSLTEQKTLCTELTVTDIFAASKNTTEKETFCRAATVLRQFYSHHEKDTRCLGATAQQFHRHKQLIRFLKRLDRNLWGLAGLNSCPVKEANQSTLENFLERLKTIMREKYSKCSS

recombinant human IL4 [4] = target: T2, recombinant human IL4; assay: SPR (BIACORE 3000), antibody captured, human IL4 as analyte

| Binder | EC50 (pM), antibody-mediated cell killing of RPMI8226 cells [1] | binding result [2] | IL4 IC50 (HEK Blue reporter assay) (recombinant human IL4 [3]) | Kd (recombinant human IL4 [4]) | No. of ILs Bound (recombinant human IL4 [4]) | kDa Bound (recombinant human IL4 [4]) | koff (recombinant human IL4 [4]) | kon (recombinant human IL4 [4]) |
| --- | --- | --- | --- | --- | --- | --- | --- | --- |
| Binding Protein 5 (other) heavy 1: QVQLVQSGAEVAKPGTSVKLSCKASGYTFTDYWMQWVKQRPGQGLEWIGTIYPGDGDTGYAQKFQGKATLTADKSSKTVYMHLSSLASEDSAVYYCARGDYYGSNSLDYWGQGTSVTVSSASTKGPSVFPLAPCSRSTSESTAALGCLVKDYFPEPVTVSWNSGALTSGVHTFPAVLQSSGLYSLSSVVTVPSSSLGTKTYTCNVDHKPSNTKVDKRVESKYGPPCPPCPAPEFLGGPSVFLFPPKPKDTLMISRTPEVTCVVVDVSQEDPEVQFNWYVDGVEVHNAKTKPREEQFNSTYRVVSVLTVLHQDWLNGKEYKCKVSNKGLPSSIEKTISKAKGQPREPQVYTLPPCQEEMTKNQVSLWCLVKGFYPSDIAVEWESNGQPENNYKTTPPVLDSDGSFFLYSKLTVDKSRWQEGNVFSCSVMHEALHNHYTQKSLSLSLGK light 1: DIVMTQSHLSMSTSLGDPVSITCKASQDVSTVVAWYQQKPGQSPRRLIYSASYRYIGVPDRFTGSGAGTDFTFTISSVQAEDLAVYYCQQHYSPPYTFGGGTKLEIKRTVAAPSVFIFPPSDEQLKSGTASVVCLLNNFYPREAKVQWKVDNALQSGNSQESVTEQDSKDSTYSLSSTLTLSKADYEKHKVYACEVTHQGLSSPVTKSFNRGEC heavy 2: QVQLVQSGAEVVKPGASVKVSCKASGYTFTSYYIHWVRQAPGQGLEWIGSIYPGNVNTNYAQKFQGRATLTVDTSISTAYMELSRLRSDDTAVYYCTRSHYGLDWNFDVWGKGTTVTVSSSQVQLVESGGGVVQPGRSLRLSCAASGFTFTKAWMHWVRQAPGKQLEWVAQIKDKSNSYATYYADSVKGRFTISRDDSKNTLYLQMNSLRAEDTAVYYCRGVYYALSPFDYWGQGTLVTVSSRTASTKGPSVFPLAPCSRSTSESTAALGCLVKDYFPEPVTVSWNSGALTSGVHTFPAVLQSSGLYSLSSVVTVPSSSLGTKTYTCNVDHKPSNTKVDKRVESKYGPPCPPCPAPEFLGGPSVFLFPPKPKDTLMISRTPEVTCVVVDVSQEDPEVQFNWYVDGVEVHNAKTKPREEQFNSTYRVVSVLTVLHQDWLNGKEYKCKVSNKGLPSSIEKTISKAKGQPREPQVCTLPPSQEEMTKNQVSLSCAVKGFYPSDIAVEWESNGQPENNYKTTPPVLDSDGSFFLVSKLTVDKSRWQEGNVFSCSVMHEALHNHYTQKSLSLSLGK light 2: DIVMTQTPLSLSVTPGQPASISCKSSQSLVHNNANTYLSWYLQKPGQSPQSLIYKVSNRFSGVPDRFSGSGSGTDFTLKISRVEAEDVGVYYCGQGTQYPFTFGSGTKVEIKGQPKAAPDIQMTQSPSSLSASVGDRVTITCQASQNIYVWLNWYQQKPGKAPKLLIYKASNLHTGVPSRFSGSGSGTDFTLTISSLQPEDIATYYCQQGQTYPYTFGQGTKLEIKTKGPSRTVAAPSVFIFPPSDEQLKSGTASVVCLLNNFYPREAKVQWKVDNALQSGNSQESVTEQDSKDSTYSLSSTLTLSKADYEKHKVYACEVTHQGLSSPVTKSFNRGEC | 0.379 pM |  |  |  |  |  |  |  |
| Binding Protein 3 (other, Trispecific antibody of four chains, IgG4: anti-CD19 Fab arm (knob) and CODV arm anti-CD28 x anti-CD3 (hole); also called anti-CD19×CD28×CD3 IgG4 trispecific antibody; CD19 × (CD28 × CD3)) heavy 1: QVQLVQSGAEVKKPGSSVKVSCKASGYAFSSYWMNWVRQAPGQGLEWIGQIWPGDGDTNYNQKFKGRATLTADESTSTAYMELSSLRSEDTAVYYCARRETTTVGRYYYAMDYWGQGTTVTVSSASTKGPSVFPLAPCSRSTSESTAALGCLVKDYFPEPVTVSWNSGALTSGVHTFPAVLQSSGLYSLSSVVTVPSSSLGTKTYTCNVDHKPSNTKVDKRVESKYGPPCPPCPAPEFLGGPSVFLFPPKPKDTLMISRTPEVTCVVVDVSQEDPEVQFNWYVDGVEVHNAKTKPREEQFNSTYRVVSVLTVLHQDWLNGKEYKCKVSNKGLPSSIEKTISKAKGQPREPQVYTLPPCQEEMTKNQVSLWCLVKGFYPSDIAVEWESNGQPENNYKTTPPVLDSDGSFFLYSKLTVDKSRWQEGNVFSCSVMHEALHNHYTQKSLSLSLGK light 1: DLVLTQSPASLAVSPGQRATITCKASQSVDYDGDSYLNWYQQKPGQPPKLLIYDASNLVSGVPARFSGSGSGTDFTLTINPVEANDTANYYCQQSTEDPWTFGQGTKLEIKRTVAAPSVFIFPPSDEQLKSGTASVVCLLNNFYPREAKVQWKVDNALQSGNSQESVTEQDSKDSTYSLSSTLTLSKADYEKHKVYACEVTHQGLSSPVTKSFNRGEC heavy 2: QVQLVQSGAEVVKPGASVKVSCKASGYTFTSYYIHWVRQAPGQGLEWIGSIYPGNVNTNYAQKFQGRATLTVDTSISTAYMELSRLRSDDTAVYYCTRSHYGLDWNFDVWGKGTTVTVSSSQVQLVESGGGVVQPGRSLRLSCAASGFTFTKAWMHWVRQAPGKQLEWVAQIKDKSNSYATYYADSVKGRFTISRDDSKNTLYLQMNSLRAEDTAVYYCRGVYYALSPFDYWGQGTLVTVSSRTASTKGPSVFPLAPCSRSTSESTAALGCLVKDYFPEPVTVSWNSGALTSGVHTFPAVLQSSGLYSLSSVVTVPSSSLGTKTYTCNVDHKPSNTKVDKRVESKYGPPCPPCPAPEFLGGPSVFLFPPKPKDTLMISRTPEVTCVVVDVSQEDPEVQFNWYVDGVEVHNAKTKPREEQFNSTYRVVSVLTVLHQDWLNGKEYKCKVSNKGLPSSIEKTISKAKGQPREPQVCTLPPSQEEMTKNQVSLSCAVKGFYPSDIAVEWESNGQPENNYKTTPPVLDSDGSFFLVSKLTVDKSRWQEGNVFSCSVMHEALHNHYTQKSLSLSLGK light 2: DIVMTQTPLSLSVTPGQPASISCKSSQSLVHNNANTYLSWYLQKPGQSPQSLIYKVSNRFSGVPDRFSGSGSGTDFTLKISRVEAEDVGVYYCGQGTQYPFTFGSGTKVEIKGQPKAAPDIQMTQSPSSLSASVGDRVTITCQASQNIYVWLNWYQQKPGKAPKLLIYKASNLHTGVPSRFSGSGSGTDFTLTISSLQPEDIATYYCQQGQTYPYTFGQGTKLEIKTKGPSRTVAAPSVFIFPPSDEQLKSGTASVVCLLNNFYPREAKVQWKVDNALQSGNSQESVTEQDSKDSTYSLSSTLTLSKADYEKHKVYACEVTHQGLSSPVTKSFNRGEC |  | binds |  |  |  |  |  |  |
| Binding Protein 17 (bispecific antibody, human IgG1, kappa, lambda, Bispecific trivalent (CODV-Fab) × Fab-IgG1 Fc; two IL4 sites, one IL13 site; also called IL4 × (IL13 × IL4); (anti-IL13 × anti-IL4) × anti-IL4) heavy 1: not shown light 1: DIQMTQSPASLSVSVGDTITLTCHASQNIDVWLSWFQQKPGNIPKLLIYKASNLHTGVPSRFSGSGSGTGFTLTISSLQPEDIATYYCQQAHSYPFTFGGGTKLEIKGQPKAAPSVTLFPPSSEELQANKATLVCLISDFYPGAVTVAWKADSSPVKAGVETTTPSKQSNNKYAASSYLSLTPEQWKSHRSYSCQVTHEGSTVEKTVAPTECS heavy 2: not shown light 2: not shown |  |  | 0.00862 µg/mL | 2.4 pM | 2 | 35 kDa | 0.00076 s⁻¹ | 3.16e+08 M⁻¹ s⁻¹ |
| Binding Protein 19 (bispecific antibody, human IgG1, kappa, lambda, Bispecific trivalent (CODV-Fab) × Fab-IgG1 Fc; two IL4 sites, one IL13 site; also called IL4 × (IL4 × IL13); (anti-IL4 × anti-IL13) × anti-IL4) heavy 1: not shown light 1: DIQMTQSPASLSVSVGDTITLTCHASQNIDVWLSWFQQKPGNIPKLLIYKASNLHTGVPSRFSGSGSGTGFTLTISSLQPEDIATYYCQQAHSYPFTFGGGTKLEIKGQPKAAPSVTLFPPSSEELQANKATLVCLISDFYPGAVTVAWKADSSPVKAGVETTTPSKQSNNKYAASSYLSLTPEQWKSHRSYSCQVTHEGSTVEKTVAPTECS heavy 2: not shown light 2: not shown |  |  | 0.00573 µg/mL | 4.65 pM | 2 | 34 kDa | 0.000385 s⁻¹ | 8.27e+07 M⁻¹ s⁻¹ |
| Binding Protein 16 (bispecific antibody, human IgG1, kappa, lambda, Bispecific trivalent (CODV-Fab) × Fab-IgG1 Fc; two IL13 sites, one IL4 site; also called IL13 × (IL13 × IL4); (anti-IL13 × anti-IL4) × anti-IL13) heavy 1: not shown light 1: DIVLTQSPASLAVSLGQRATISCRASESVDSYGQSYMHWYQQKAGQPPKLLIYLASNLESGVPARFSGSGSRTDFTLTIDPVQAEDAATYYCQQNAEDSRTFGGGTKLEIKGQPKAAPSVTLFPPSSEELQANKATLVCLISDFYPGAVTVAWKADSSPVKAGVETTTPSKQSNNKYAASSYLSLTPEQWKSHRSYSCQVTHEGSTVEKTVAPTECS heavy 2: not shown light 2: not shown |  |  | 0.013 µg/mL | 5.88 pM | 1 | 17 kDa | 0.00028 s⁻¹ | 4.77e+07 M⁻¹ s⁻¹ |
| Binding Protein 18 (bispecific antibody, human IgG1, kappa, lambda, Bispecific trivalent (CODV-Fab) × Fab-IgG1 Fc; two IL13 sites, one IL4 site; also called IL13 × (IL4 × IL13); (anti-IL4 × anti-IL13) × anti-IL13) heavy 1: not shown light 1: DIVLTQSPASLAVSLGQRATISCRASESVDSYGQSYMHWYQQKAGQPPKLLIYLASNLESGVPARFSGSGSRTDFTLTIDPVQAEDAATYYCQQNAEDSRTFGGGTKLEIKGQPKAAPSVTLFPPSSEELQANKATLVCLISDFYPGAVTVAWKADSSPVKAGVETTTPSKQSNNKYAASSYLSLTPEQWKSHRSYSCQVTHEGSTVEKTVAPTECS heavy 2: not shown light 2: not shown |  |  | 0.0146 µg/mL | 10.2 pM | 1 | 18 kDa | 0.000359 s⁻¹ | 3.52e+07 M⁻¹ s⁻¹ |
